Test results reported in patent publication US20240390508A1 (Takeda / Millennium, published 2024).

Molecular target: T1, human transferrin receptor (hTfR) (human, UniProt P02786 89-760, limits assumed)
T1 construct: 0.5 uM hTfR solution immobilised on a Ni-NTA chip with EDC/NHS; source and construct are not described; also called human TfR
Experiment: SPR, hTfR immobilised on NTA chip, single cycle kinetics; A = KD less than 100 nM
Description: The various synthesized peptide-nucleic acid conjugates were tested for intermolecular interaction by surface plasmon resonance (SPR) of the peptide-nucleic acid conjugate with transferrin receptor (hTfR) using the method shown below. The specific test method is shown below.
NTA sensor chip (Global Life Science Technologies Japan Co., Ltd.) was inserted into Biacore T200 (Global Life Science Technologies Japan Co., Ltd.), prime operation was performed three times with running buffer: 10 mM HEPES pH 8.0 (Nacalai Tesque Co., Ltd.), 150 mM NaCl (Nacalai Tesque Co., Ltd.), 0.05% Tween 20 (Nacalai Tesque Co., Ltd.), 0.1% BSA (SIGMA-ALDRICH), and 1.0% DMSO (FUJIFILM Wako Pure Chemical Corporation), and equilibrated at a flow rate of 30 μL/min. 350 mM EDTA solution was reacted for 60 seconds at a flow rate of 10 μL/min, 0.5 mM NiCl₂ solution (Kishida Chemical) was reacted for 60 seconds at a flow rate of 10 μL/min, and the NTA sensor chip was washed with 3 mM EDTA solution (Nacalai Tesque Co., Ltd.) for 60 seconds at a flow rate of 10 μL/min. After mixing 50 μL each of 60 mM EDC solution (Global Life Science Technologies Japan Co., Ltd.) and 650 mM NHS solution (Global Life Science Technologies Japan Co., Ltd.), the mixture was reacted for 420 seconds at a flow rate of 10 μL/min. 150 μL of a 0.5 μM hTfR solution was prepared by diluting with a running buffer and reacted for 300 seconds at a flow rate of 10 μL/min to immobilize hTfR on the NTA sensor chip. After immobilization, capping was performed by reacting with a 1.0 M ethanolamine aqueous solution (Global Life Science Technologies Japan Co., Ltd.) at a flow rate of 10 μL/min for 420 seconds. A peptide-nucleic acid conjugate solution adjusted to 10 mM in DMSO solution was diluted with running buffer to a final concentration of […] peptide-nucleic acid conjugate solution, and 100 nM, 50 nM, 25 nM, 10 nM, 5 nM peptide-nucleic acid conjugate solutions were prepared. Using the aforementioned samples, the kinetics of the peptide against hTfR was obtained by SPR measurement.
The kinetics evaluation model was Single Cycle Kinetics, and curve fitting was performed using Biacore T200 Evaluation Software Version 3.0 (Global Life Science Technologies Japan Co., Ltd.).

T1 sequence (P02786 89-760 limits assumed): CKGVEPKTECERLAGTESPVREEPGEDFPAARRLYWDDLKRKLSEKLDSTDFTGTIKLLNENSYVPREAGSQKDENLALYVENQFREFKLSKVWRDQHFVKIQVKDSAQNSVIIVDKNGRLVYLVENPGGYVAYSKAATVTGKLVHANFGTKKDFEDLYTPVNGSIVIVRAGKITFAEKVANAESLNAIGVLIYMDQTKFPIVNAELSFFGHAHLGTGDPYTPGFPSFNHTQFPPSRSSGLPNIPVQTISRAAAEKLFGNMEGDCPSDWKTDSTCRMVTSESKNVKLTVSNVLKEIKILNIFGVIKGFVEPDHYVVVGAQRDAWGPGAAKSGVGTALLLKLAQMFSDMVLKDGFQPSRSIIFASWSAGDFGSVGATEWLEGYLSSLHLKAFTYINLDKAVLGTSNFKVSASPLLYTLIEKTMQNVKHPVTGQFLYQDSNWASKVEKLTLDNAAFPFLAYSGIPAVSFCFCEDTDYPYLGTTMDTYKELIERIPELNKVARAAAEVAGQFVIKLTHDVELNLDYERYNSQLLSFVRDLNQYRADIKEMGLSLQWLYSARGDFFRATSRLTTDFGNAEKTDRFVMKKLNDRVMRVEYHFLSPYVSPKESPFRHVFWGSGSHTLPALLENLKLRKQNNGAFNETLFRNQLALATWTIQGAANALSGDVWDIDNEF

Row | Kd [nM] | Binder
1 | < 100 | AVFVWNYYIIRRYYC (not fully specified; MeF at 3, MeY at 14 (N-methyl); thioether ring from N-terminal chloroacetyl-Ala to Cys 15; C-terminal Gly-KN3-NH2, azide joined to BCN on the oligonucleotide, also called A4/C55) [peptide-HDO conjugate of Example 55 (first nucleic acid strand A4, second nucleic acid strand C55)]
2 | < 100 | AVFVWNYYIIRRYYC (MeF at 3, MeY at 14 (N-methyl); thioether ring from N-terminal chloroacetyl-Ala to Cys 15; C-terminal Gly-KN3-NH2, azide joined to BCN on the oligonucleotide, also called A1/C33) [peptide-HDO conjugate of Example 33 (first nucleic acid strand A1, second nucleic acid strand C33)]
3 | < 100 | AVFVWNYYIIRRYYC (MeF at 3, MeY at 14 (N-methyl); thioether ring from N-terminal chloroacetyl-Ala to Cys 15; C-terminal Gly-KN3-NH2, azide joined to BCN on the oligonucleotide, also called A1/C19) [peptide-HDO conjugate of Example 19 (first nucleic acid strand A1, second nucleic acid strand C19)]
4 | < 100 | AVFVWNYYIIRRYYC (MeF at 3, MeY at 14 (N-methyl); thioether ring from N-terminal chloroacetyl-Ala to Cys 15; C-terminal Gly-KN3-NH2, azide joined to BCN on the oligonucleotide, also called A2/C42) [peptide-HDO conjugate of Example 43 (first nucleic acid strand A2, second nucleic acid strand C42)]
5 | < 100 | Y10-PMO conjugate of Example 57 (not fully specified; N-terminal BCN-AEEA; C-terminal beta-Ala coupled to the 3' end of PMO A1; MeF at 3, MeY at 14 (N-methyl); thioether ring from N-terminal chloroacetyl-Ala to Cys 15; C-terminal Gly-KN3-NH2, azide joined to BCN of the linker peptide) peptide: AVFVWNYYIIRRYYC RRRA
6 | < 100 | Y13-PMO conjugate of Example 60 (not fully specified; N-terminal 4-pentynoyl-AEEA; C-terminal Gly coupled to PMO A4; MeF at 3, MeY at 14 (N-methyl); thioether ring from N-terminal chloroacetyl-Ala to Cys 15; C-terminal Gly-KN3-NH2, azide joined by copper-catalysed click to the 4-pentynoyl group of the linker …) peptide: AVFVWNYYIIRRYYC RRRG
7 | < 100 | AVFVWNYYIIRRYYC (MeF at 3, MeY at 14 (N-methyl); thioether ring from N-terminal chloroacetyl-Ala to Cys 15; C-terminal Gly-KN3-NH2, azide joined to BCN on the oligonucleotide, also called A2/C30) [peptide-HDO conjugate of Example 38 (first nucleic acid strand A2, second nucleic acid strand C30)]
8 | < 100 | AVFVWNYYIIRRYYC (MeF at 3, MeY at 14 (N-methyl); thioether ring from N-terminal chloroacetyl-Ala to Cys 15; C-terminal Gly-KN3-NH2, azide joined to BCN on the oligonucleotide, also called A1/C26) [peptide-HDO conjugate of Example 26 (first nucleic acid strand A1, second nucleic acid strand C26)]
9 | < 100 | AVFVWNYYIIRRYYC (MeF at 3, MeY at 14 (N-methyl); thioether ring from N-terminal chloroacetyl-Ala to Cys 15; C-terminal Gly-KN3-NH2, azide joined to BCN on the oligonucleotide, also called A1/C31) [peptide-HDO conjugate of Example 31 (first nucleic acid strand A1, second nucleic acid strand C31)]
10 | < 100 | AVFVWNYYIIRRYYC (MeF at 3, MeY at 14 (N-methyl); thioether ring from N-terminal chloroacetyl-Ala to Cys 15; C-terminal Gly-KN3-NH2, azide joined to BCN on the oligonucleotide, also called A2/C33) [peptide-HDO conjugate of Example 41 (first nucleic acid strand A2, second nucleic acid strand C33)]
11 | < 100 | AVFVWNYYIIRRYYC (MeF at 3, MeY at 14 (N-methyl); thioether ring from N-terminal chloroacetyl-Ala to Cys 15; C-terminal Gly-KN3-NH2, azide joined to BCN on the oligonucleotide, also called A1/C4) [peptide-HDO conjugate of Example 4 (first nucleic acid strand A1, second nucleic acid strand C4)]
12 | < 100 | AVFVWNYYIIRRYYC (MeF at 3, MeY at 14 (N-methyl); thioether ring from N-terminal chloroacetyl-Ala to Cys 15; C-terminal Gly-KN3-NH2, azide joined to BCN on the oligonucleotide, also called A2/C13) [peptide-HDO conjugate of Example 13 (first nucleic acid strand A2, second nucleic acid strand C13)]
13 | < 100 | AVFVWNYYIIRRYYC (MeF at 3, MeY at 14 (N-methyl); thioether ring from N-terminal chloroacetyl-Ala to Cys 15; C-terminal Gly-KN3-NH2, azide joined to BCN on the oligonucleotide, also called A1/C45) [peptide-HDO conjugate of Example 45 (first nucleic acid strand A1, second nucleic acid strand C45)]
14 | < 100 | AVFVWNYYIIRRYYC (MeF at 3, MeY at 14 (N-methyl); thioether ring from N-terminal chloroacetyl-Ala to Cys 15; C-terminal Gly-KN3-NH2, azide joined to BCN on the oligonucleotide, also called A2/C4) [peptide-HDO conjugate of Example 14 (first nucleic acid strand A2, second nucleic acid strand C4)]
15 | < 100 | AVFVWNYYIIRRYYC (MeF at 3, MeY at 14 (N-methyl); thioether ring from N-terminal chloroacetyl-Ala to Cys 15; C-terminal Gly-KN3-NH2, azide joined to BCN on the oligonucleotide, also called A2/C10) [peptide-HDO conjugate of Example 10 (first nucleic acid strand A2, second nucleic acid strand C10)]
16 | < 100 | AVFVWNYYIIRRYYC (MeF at 3, MeY at 14 (N-methyl); thioether ring from N-terminal chloroacetyl-Ala to Cys 15; C-terminal Gly-KN3-NH2, azide joined to BCN on the oligonucleotide, also called A2/C17) [peptide-HDO conjugate of Example 22 (first nucleic acid strand A2, second nucleic acid strand C17)]
17 | < 100 | AVFVWNYYIIRRYYC (MeF at 3, MeY at 14 (N-methyl); thioether ring from N-terminal chloroacetyl-Ala to Cys 15; C-terminal Gly-KN3-NH2, azide joined to BCN on the oligonucleotide, also called A2/C47) [peptide-HDO conjugate of Example 48 (first nucleic acid strand A2, second nucleic acid strand C47)]
18 | < 100 | AVFVWNYYIIRRYYC (not fully specified; MeF at 3, MeY at 14 (N-methyl); thioether ring from N-terminal chloroacetyl-Ala to Cys 15; C-terminal Gly-KN3-NH2, azide joined to BCN on the oligonucleotide, also called A4/C56) [peptide-HDO conjugate of Example 56 (first nucleic acid strand A4, second nucleic acid strand C56)]
19 | < 100 | AVFVWNYYIIRRYYC (MeF at 3, MeY at 14 (N-methyl); thioether ring from N-terminal chloroacetyl-Ala to Cys 15; C-terminal Gly-KN3-NH2, azide joined to BCN on the oligonucleotide, also called A2/C44) [peptide-HDO conjugate of Example 46 (first nucleic acid strand A2, second nucleic acid strand C44)]
20 | < 100 | AVFVWNYYIIRRYYC (MeF at 3, MeY at 14 (N-methyl); thioether ring from N-terminal chloroacetyl-Ala to Cys 15; C-terminal Gly-KN3-NH2, azide joined to BCN on the oligonucleotide, also called A1/C20) [peptide-HDO conjugate of Example 20 (first nucleic acid strand A1, second nucleic acid strand C20)]
21 | < 100 | Y14-PMO conjugate of Example 61 (not fully specified; N-terminal 4-pentynoyl-AEEA; ivDde groups on the three Lys removed with hydrazine; C-terminal Gly coupled to PMO A4; MeF at 3, MeY at 14 (N-methyl); thioether ring from N-terminal chloroacetyl-Ala to Cys 15; C-terminal Gly-KN3-NH2, azide joined by copper-catalysed click to the 4-pentynoyl group of the linker …) peptide: AVFVWNYYIIRRYYC KKKG
22 | < 100 | AVFVWNYYIIRRYYC (MeF at 3, MeY at 14 (N-methyl); thioether ring from N-terminal chloroacetyl-Ala to Cys 15; C-terminal Gly-KN3-NH2, azide joined to BCN on the oligonucleotide, also called A2/C29) [peptide-HDO conjugate of Example 37 (first nucleic acid strand A2, second nucleic acid strand C29)]
23 | < 100 | AVFVWNYYIIRRYYC (MeF at 3, MeY at 14 (N-methyl); thioether ring from N-terminal chloroacetyl-Ala to Cys 15; C-terminal Gly-KN3-NH2, azide joined to BCN on the oligonucleotide, also called A1/C29) [peptide-HDO conjugate of Example 29 (first nucleic acid strand A1, second nucleic acid strand C29)]
24 | < 100 | AVFVWNYYIIRRYYC (MeF at 3, MeY at 14 (N-methyl); thioether ring from N-terminal chloroacetyl-Ala to Cys 15; C-terminal Gly-KN3-NH2, azide joined to BCN on the oligonucleotide, also called A2/C31) [peptide-HDO conjugate of Example 39 (first nucleic acid strand A2, second nucleic acid strand C31)]
25 | < 100 | AVFVWNYYIIRRYYC (MeF at 3, MeY at 14 (N-methyl); thioether ring from N-terminal chloroacetyl-Ala to Cys 15; C-terminal Gly-PEG12c-KN3-NH2, azide joined to BCN on the oligonucleotide, also called A1/C50) [peptide-HDO conjugate of Example 50 (first nucleic acid strand A1, second nucleic acid strand C50)]
26 | < 100 | AVFVWNYYIIRRYYC (MeF at 3, MeY at 14 (N-methyl); thioether ring from N-terminal chloroacetyl-Ala to Cys 15; C-terminal Gly-KN3-NH2, azide joined to BCN on the oligonucleotide, also called A1/C28) [peptide-HDO conjugate of Example 28 (first nucleic acid strand A1, second nucleic acid strand C28)]
27 | < 100 | AVFVWNYYIIRRYYC (MeF at 3, MeY at 14 (N-methyl); thioether ring from N-terminal chloroacetyl-Ala to Cys 15; C-terminal Gly-KN3-NH2, azide joined to BCN on the oligonucleotide, also called A2/C19) [peptide-HDO conjugate of Example 24 (first nucleic acid strand A2, second nucleic acid strand C19)]
